In US9074002B2, “PTP1B inhibitors” (Cold Spring Harbor Laboratory, priority 2009, dated 2015):

T1: PTP1B-OX (Homo sapiens, UniProt P18031)
T1 construct: made in house; host or cells: E. coli BL21 (pET19b)
T1 sequence (P18031 3-277): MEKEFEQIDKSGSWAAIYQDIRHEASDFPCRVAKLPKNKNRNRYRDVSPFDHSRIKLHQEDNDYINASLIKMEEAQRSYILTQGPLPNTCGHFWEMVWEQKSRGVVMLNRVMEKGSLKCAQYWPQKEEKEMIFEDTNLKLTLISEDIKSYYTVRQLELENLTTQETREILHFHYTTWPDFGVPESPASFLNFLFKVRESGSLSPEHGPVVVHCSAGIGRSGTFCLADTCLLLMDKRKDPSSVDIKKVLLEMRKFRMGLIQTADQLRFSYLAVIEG

T2: PTP1B under reducing condition (Homo sapiens, UniProt P18031)
T2 construct: made in house; host or cells: E. coli BL21 (pET19b)
T2 sequence (P18031 3-277 limits assumed): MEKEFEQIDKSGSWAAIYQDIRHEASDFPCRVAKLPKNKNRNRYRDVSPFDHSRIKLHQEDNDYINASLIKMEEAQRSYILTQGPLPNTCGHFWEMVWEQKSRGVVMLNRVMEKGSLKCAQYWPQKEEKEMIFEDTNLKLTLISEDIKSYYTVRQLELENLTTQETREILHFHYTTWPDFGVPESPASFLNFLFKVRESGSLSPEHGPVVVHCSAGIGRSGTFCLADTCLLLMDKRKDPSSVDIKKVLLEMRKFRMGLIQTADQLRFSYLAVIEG

T3: endogenous PTP1B-OX (Homo sapiens, UniProt P18031)
T3 construct: endogenous in cells; host or cells: 293T cells (transfected only with the scFv intrabody)
T3 sequence (P18031 1-435): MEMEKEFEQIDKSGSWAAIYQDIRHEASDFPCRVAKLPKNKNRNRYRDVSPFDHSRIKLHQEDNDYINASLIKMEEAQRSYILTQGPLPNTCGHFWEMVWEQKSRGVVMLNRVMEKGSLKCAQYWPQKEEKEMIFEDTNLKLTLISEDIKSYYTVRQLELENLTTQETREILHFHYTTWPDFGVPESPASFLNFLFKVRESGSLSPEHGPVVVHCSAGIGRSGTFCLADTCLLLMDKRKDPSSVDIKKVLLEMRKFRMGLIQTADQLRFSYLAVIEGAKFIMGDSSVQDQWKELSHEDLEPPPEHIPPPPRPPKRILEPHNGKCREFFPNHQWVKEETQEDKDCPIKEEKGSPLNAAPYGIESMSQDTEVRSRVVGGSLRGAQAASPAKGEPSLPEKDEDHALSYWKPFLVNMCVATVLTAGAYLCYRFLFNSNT


Tests used:
PTP1B-OX = biological target: T1, PTP1B-OX; assay: In vitro binding assay, purified recombinant PTP1B (37 kDa) and purified scFv, Ni-NTA pull down; conditions: purified proteins, scFv in molar excess, 2 hours at 4° C.; FIG. 9
Procedure: (§1) They established conditions in which PTP1B is reversibly oxidized by H2O2 in solution (FIG. 8). An artificial protein substrate RCML, in which tyrosine was phosphorylated with ^32P using recombinant GST-FER kinase was used in this assay to measure the phosphatase activity. Recombinant PTP (37 kDa) was incubated with increasing concentration (50 μM to 100 mM) of H2O2. A quick buffer exchange was done to remove the H2O2 and reducing agent (TCEP) was added to reactivate the enzyme.
(§2) In the in vitro binding assay, purified PTP was reversibly oxidized with […] followed by a quick buffer exchange to remove H2O2 (FIG. 8). Purified scFv was incubated in molar excess with PTP1B-OX or with PTP under reducing condition (with 2 mM TCEP) in binding buffer (20 mM HEPES, pH 7.4, 300 mM NaCl, 0.05% BSA, 0.05% Tween-20 and 10 mM imidazole) for 2 hours at 4° C. Ni-NTA agarose was added and incubated for one hour at 4° C. Protein complex bound to Ni-NTA agarose beads was pulled down and washed (three times, 5 minutes each, at 4° C.) with binding buffer containing 20 mM imidazole to reduce non-specific binding to the beads. The protein complex was eluted from the Ni-NTA agarose beads with 500 mM imidazole (in binding buffer, pH 7.4) for 15 minutes at 4° C. with gentle shaking. The complex was separated by SDS-PAGE and PTP1B was detected with anti-PTP1B antibody (FG6) and scFv was detected with anti-HA antibody [anti-HA (3F10)-HRP, Roche] by immunoblotting. Eight different scFvs (scFvs 20, 21, 24, 28, 45, 48, 57, and 105), expressed and purified from bacterial cultures were tested by this in vitro binding experiment.

[1] = biological target: T2, PTP1B under reducing condition; assay: In vitro binding assay, purified recombinant PTP1B (37 kDa) and purified scFv, Ni-NTA pull down, reducing condition; conditions: with 2 mM TCEP; FIG. 9
Procedure: as §1, §2

endogenous PTP1B-OX = biological target: T3, endogenous PTP1B-OX; assay: Intrabody interaction in 293T cells treated with H2O2 (Ni-NTA pull down / anti-PTP1B immunoprecipitation); type: cell-based; conditions: 1 mM H2O2 5 minutes, FIGS. 11, 12
Procedure: One of the positive candidate scFvs (scFv45) was cloned in pcDNA3.2/V5-GW/D-TOPO expression vector and transiently expressed in mammalian cells as stable intracellular antibody (aka intrabody) (FIG. 10). To detect PTP1B-OX and scFv45 interaction in mammalian cells, scFv45 was overexpressed in 293T cells as described herein (See Example 4) and 48 hours post transfection the cells were serum-starved for 16 hours in growth medium (DMEM, low glucose) without serum (FBS), then incubated with 1 mM H2O2 (in growth medium without serum) for 5 minutes at 37° C. or treated with 20 mM NAC (in growth medium without serum) for 1 hour at 37° C. Cells treated with H2O2 were washed twice with cold (4° C.) PBS and lysed in lysis buffer (25 mM HEPES, pH 7.4, 150 mM NaCl, 0.25% Deoxychloate, 1% TritonX-100, 25 mM NaF, 10 mM MgCl2, 1 mM EDTA, 10% Glycerol, 0.5 mM PMSF, 10 mM Benzamidine, protease inhibitor cocktail). Cells treated with NAC were lysed with lysis buffer containing 2 mM TCEP to ensure a post-lysis reducing environment. Interaction between PTP1B and intrabody45 were tested by pulling down the protein complex from 1 mg of total cell lysate with Ni-NTA agarose or by immunoprecipitating PTP with anti-PTP1B (FG6). For the pull down experiment, Ni-NTA agarose beads were incubated with the lysates (both oxidized and reduced) at 4° C. Protein complex bound to the Ni-NTA agarose beads was pulled down and washed three times; first with lysis buffer containing 20 mM imidazole followed by two more washes with wash buffer (PBS, pH 7.4, 20 mM imidazole, 0.05% BSA, 0.05% Tween-20 and protease inhibitors). Applicant used 20 mM imidazole in the wash buffer to reduce the non-specific binding of proteins with the Ni-NTA agarose beads. The complex was eluted with wash buffer containing 500 mM imidazole with gentle shaking at 4° C. and the eluate was mixed with SDS sample buffer with DTT. For the immunoprecipitation experiments, 1 mg of total cell lystates (both oxidized and reduced) was incubated with anti-PTP1B antibody (FG6) at 4° C. The interacting protein complex was immunoprecipitated after incubating the lysate-antibody mixture with protein A/G Sepharose at 4° C. After immunoprecipitation, Sepharose beads were washed three times; first with lysis buffer followed by two more washes with wash buffer (PBS, pH 7.4, 0.05% BSA, 0.05% Tween-20 and protease inhibitors). The Sepharose beads were then heated at 90° C. in 2×SDS sample buffer with DTT. Proteins from the pulled down or immunoprecipitated complex were separated by SDS-PAGE. PTP was detected with anti-PTP1B antibody (FG6) and the intrabodies were detected with anti-HA (3F10)-HRP antibody [anti-HA (3F10)-HRP, Roche] by immunoblotting.
In the initial in vitro phosphatase screening assay using reversibly oxidized (with H2O2) recombinant PTP1B, Applicant found four different PTP1B-OX specific scFvs (scFv45, scFv57, scFv64 and scFv106) from the initial pool of 12 different scFvs. […] Applicant has also shown that scFv45, expressed as an intrabody in mammalian cells, can bind to endogenous PTP1B-OX but not endogenous PTP under reducing conditions. Further assessment was carried out to identify additional PTP1B-OX-specific intrabodies. Additional scFvs have been subcloned in pcDNA3.2/V5-GW/D-TOPO mammalian expression vector (FIG. 10) from their respective phagemid constructs. After transient overexpression of these scFvs as intrabodies in 293T cells, the interaction between endogenous PTP1B and these intrabodies in both H2O2-treated cells and cells was observed under reducing condition (treated with NAC and lysed with lysis buffer containing TCEP). […] All can be used in the methods and compositions described herein. Additional scFvs, such as some or all of the 137 selected individual scFvs from the library, can be similarly tested by in vitro screening and/or by binding assay in mammalian cells.

Row | binding to PTP1B-OX in vitro (PTP1B-OX) | binding to PTP1B under reducing condition in vitro [1] | binding of intrabody to endogenous PTP1B-OX (endogenous PTP1B-OX) | Molecule
1 | – | – | bound weakly to PTP1B-OX | scFv62: scFv, SEQ ID NO: 95 and 165 (protein) scFv: MKKTAIAIAVALAGFATVAQAALTQPSSVSANPGGTVKITCSGSSSAYGYGWYQQKSPGSAPVTVIYNNNKRPSNIPSRFSGSKSGSTGTLTITGVQAEDEAVYFCGSEDSSTDAIFGAGTTLTVLGQSSRSSAVTLDESGGGLQTPGGALSLVCKASGFTFSSYDMGWVRQAPGKGLEYVAGITNDGRYASYGSAVDGRATISRDNGQSTVRLQLNNLRAEDTGTYYCARDDGSGWTGNTIDTWGHGTEVIVSSTSGQAGQHHHHHHGAYPYDVPDYAS
2 | no significant binding | no significant binding | – | scFv28: scFv, truncated sequence, SEQ ID NO: 61 (protein) scFv: MKKTAIAIAVALAGFATVAQAAVIYSNDERPSDIPSRFSGSTSGSTSTLTITGVQADDEAVYFCGSADSSTYAGIFGAGTTLTVLGQSSRSSAVTLDESGGGLQTPGGALSLVCKASGFTFSSFNMFWVRQAPGRGLEFVAGITSSGGSTYYGTAVKGRATISRDNGQSTVRMQLNNLRAEDTGTYFCARGAYDYYFYWNYAGTIDAWGHGTEVIVSSTSGQAGQHHHHHHGAYPYDVPDYAS
3 | – | – | bound weakly to PTP1B-OX | scFv61: scFv, SEQ ID NO: 94 and 164 (protein) scFv: MKKTAIAIAVALAGFATVAQAALTQPSSVSANPGETVKITCSGGGSYAGSYYYGWYQQKAPGSAPVTLIYDNTNRPSNIPSRFSGSLSGSTGTLTITGVRAEDEAVYYCGSFDSSTDGGYAAIFGAGTTLTVLGQSSRSSAVTLDESGGGLQTPGGGLSLVCKASEFTFSSYAMEWVRQAPGKGLEWVAYINSDGSSTWYAPAVKGRATISRDNGQSTVRLQLNSLRAEDTATYYCTRGSGGENIDTWGHGTEVIVSSTSGQAGQHHHHHHGAYPYDVPDYAS

Further lines, the molecule ahead of its results:

Row | Molecule | binding to PTP1B-OX in vitro (PTP1B-OX) | binding to PTP1B under reducing condition in vitro [1] | binding of intrabody to endogenous PTP1B-OX (endogenous PTP1B-OX)
4 | scFv24: scFv, SEQ ID NO: 57 (protein) scFv: MKKTAIAIAVALAGFATVAQAAVSASPGDTVKITCSGGNSSYGYGWYQQKSPGSAPVSVIYYNDERPSDIPSRFSGSASGSTATLTITGVQADDEAVYYCGNADSSTYAGIFGAGTTLTVLGQSSRSSAVTLDESGGGLQTPGGGLSLVCKASGFDFSTNAMGWVRQAPGKGLEWVAGISGSGSSTWYATAVKGRATISRDNGQSTVRLQLNNLRAEDTGTYYCTKYVGDYYWYIDAGSIDAWGHGTEVIVSSTSGQAGQHHHHHHGAYPYDVPDYAS | no significant binding | no significant binding | –
5 | scFv105: scFv, SEQ ID NO: 132 (protein) scFv: MKKTAIAIAVALAGFATVAQAALTQPSSVSANPGEAVKITCSGSSGSYGWYQQKSPGSAPVTVIYYNDKRPSDIPSRFSGSTSGSTSTLTITGVQAEDEAVYFCGGYDSNYLGIFGAGTTLTVLGQSSRSSAVTLDESGGGLQTPRGALSLVCKASGFTFSSYSMAWVRQAPGKGLEFVAGIQNDGSITDYGSAVDGRATISRDDGQSTVRLQLNNLRTEDTATYYCAKTTVADGVIGAYGIDAWGHGTEVIVSSTSGQAGQHHHHHHGAYPYDVPDYAS | no significant binding | no significant binding | –
6 | scFv118: scFv, SEQ ID NO: 142 and 166 (protein) scFv: MKKTAIAIAVALAGFATVAQAALTQPSSVSANLGGTVEITCSGGSGSYGWYQQKSPGGAPVTVIYYNDKRPSDIPSRFSGSKSGSTATLTITGVQVEDEAVYYCGSYDSSYVGIFGVGTTLTVLGQSSRSSAVTLDESGGGLQTPRGALSLVCKASGFTFSSYSMAWVRQAPGKGLEFVAGIQNDGSITDYGSAVDGRATISRDDGQSTVRLQLNNLRTEDTATYYCAKTTVADGVIGAYGIDAWGHGTEVIVSSTSGQAGQHHHHHHGAYPYDVPDYAS | – | – | bound weakly to PTP1B-OX
7 | scFv21: scFv, SEQ ID NO: 54 (protein) scFv: MKKTAIAIAVALAGFATVAQAALTQPSSVSANPGGTVKITCSGSSGSYYGWYQQKSPGSAPVTVIYDNDKRPSDVPSRFSGSKSGPTATLTITGVQAEDEAVYFCGSRDNSYVGIFGAGTTLTVLGQSSRSSAVTLDESGGGLQTPGGALSLVCKASGFTFSSYDMFWVRQAPGKGLEFVAQINSAGSYTNYGSAVKGRATISRDDGQSTVRLQLNNLRAEDTGIYFCAKSASGYYYSGSDAGDIDAWGHGTEVIVSSTSGQAGQHHHHHHGAYPYDVPDYAS | no significant binding | no significant binding | –
